The target of experiment [1] is Fc gamma receptor IIIA (FcγRIIIA/CD16) on PTA-6967 NK cells (human) (UniProt P08637).
Experiment [2] shares this target. The source holds these as a separate data set.
Another experiment addresses VWF (Homo sapiens) (UniProt P04275). The note with it: cited from earlier work.
The next experiment addresses CD16 (Homo sapiens) (UniProt P08637). Conditions: cited from earlier work.

Fc gamma receptor IIIA (FcγRIIIA/CD16) on PTA-6967 NK cells (human), sequence (P08637 17-254): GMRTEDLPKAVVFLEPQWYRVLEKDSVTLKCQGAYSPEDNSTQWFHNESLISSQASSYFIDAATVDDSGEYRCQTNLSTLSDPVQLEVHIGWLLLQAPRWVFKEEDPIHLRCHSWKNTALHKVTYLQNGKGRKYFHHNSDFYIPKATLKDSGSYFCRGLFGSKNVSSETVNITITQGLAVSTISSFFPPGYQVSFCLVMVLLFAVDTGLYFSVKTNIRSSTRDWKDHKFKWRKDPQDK
FVIII, sequence (P00451 20-2351): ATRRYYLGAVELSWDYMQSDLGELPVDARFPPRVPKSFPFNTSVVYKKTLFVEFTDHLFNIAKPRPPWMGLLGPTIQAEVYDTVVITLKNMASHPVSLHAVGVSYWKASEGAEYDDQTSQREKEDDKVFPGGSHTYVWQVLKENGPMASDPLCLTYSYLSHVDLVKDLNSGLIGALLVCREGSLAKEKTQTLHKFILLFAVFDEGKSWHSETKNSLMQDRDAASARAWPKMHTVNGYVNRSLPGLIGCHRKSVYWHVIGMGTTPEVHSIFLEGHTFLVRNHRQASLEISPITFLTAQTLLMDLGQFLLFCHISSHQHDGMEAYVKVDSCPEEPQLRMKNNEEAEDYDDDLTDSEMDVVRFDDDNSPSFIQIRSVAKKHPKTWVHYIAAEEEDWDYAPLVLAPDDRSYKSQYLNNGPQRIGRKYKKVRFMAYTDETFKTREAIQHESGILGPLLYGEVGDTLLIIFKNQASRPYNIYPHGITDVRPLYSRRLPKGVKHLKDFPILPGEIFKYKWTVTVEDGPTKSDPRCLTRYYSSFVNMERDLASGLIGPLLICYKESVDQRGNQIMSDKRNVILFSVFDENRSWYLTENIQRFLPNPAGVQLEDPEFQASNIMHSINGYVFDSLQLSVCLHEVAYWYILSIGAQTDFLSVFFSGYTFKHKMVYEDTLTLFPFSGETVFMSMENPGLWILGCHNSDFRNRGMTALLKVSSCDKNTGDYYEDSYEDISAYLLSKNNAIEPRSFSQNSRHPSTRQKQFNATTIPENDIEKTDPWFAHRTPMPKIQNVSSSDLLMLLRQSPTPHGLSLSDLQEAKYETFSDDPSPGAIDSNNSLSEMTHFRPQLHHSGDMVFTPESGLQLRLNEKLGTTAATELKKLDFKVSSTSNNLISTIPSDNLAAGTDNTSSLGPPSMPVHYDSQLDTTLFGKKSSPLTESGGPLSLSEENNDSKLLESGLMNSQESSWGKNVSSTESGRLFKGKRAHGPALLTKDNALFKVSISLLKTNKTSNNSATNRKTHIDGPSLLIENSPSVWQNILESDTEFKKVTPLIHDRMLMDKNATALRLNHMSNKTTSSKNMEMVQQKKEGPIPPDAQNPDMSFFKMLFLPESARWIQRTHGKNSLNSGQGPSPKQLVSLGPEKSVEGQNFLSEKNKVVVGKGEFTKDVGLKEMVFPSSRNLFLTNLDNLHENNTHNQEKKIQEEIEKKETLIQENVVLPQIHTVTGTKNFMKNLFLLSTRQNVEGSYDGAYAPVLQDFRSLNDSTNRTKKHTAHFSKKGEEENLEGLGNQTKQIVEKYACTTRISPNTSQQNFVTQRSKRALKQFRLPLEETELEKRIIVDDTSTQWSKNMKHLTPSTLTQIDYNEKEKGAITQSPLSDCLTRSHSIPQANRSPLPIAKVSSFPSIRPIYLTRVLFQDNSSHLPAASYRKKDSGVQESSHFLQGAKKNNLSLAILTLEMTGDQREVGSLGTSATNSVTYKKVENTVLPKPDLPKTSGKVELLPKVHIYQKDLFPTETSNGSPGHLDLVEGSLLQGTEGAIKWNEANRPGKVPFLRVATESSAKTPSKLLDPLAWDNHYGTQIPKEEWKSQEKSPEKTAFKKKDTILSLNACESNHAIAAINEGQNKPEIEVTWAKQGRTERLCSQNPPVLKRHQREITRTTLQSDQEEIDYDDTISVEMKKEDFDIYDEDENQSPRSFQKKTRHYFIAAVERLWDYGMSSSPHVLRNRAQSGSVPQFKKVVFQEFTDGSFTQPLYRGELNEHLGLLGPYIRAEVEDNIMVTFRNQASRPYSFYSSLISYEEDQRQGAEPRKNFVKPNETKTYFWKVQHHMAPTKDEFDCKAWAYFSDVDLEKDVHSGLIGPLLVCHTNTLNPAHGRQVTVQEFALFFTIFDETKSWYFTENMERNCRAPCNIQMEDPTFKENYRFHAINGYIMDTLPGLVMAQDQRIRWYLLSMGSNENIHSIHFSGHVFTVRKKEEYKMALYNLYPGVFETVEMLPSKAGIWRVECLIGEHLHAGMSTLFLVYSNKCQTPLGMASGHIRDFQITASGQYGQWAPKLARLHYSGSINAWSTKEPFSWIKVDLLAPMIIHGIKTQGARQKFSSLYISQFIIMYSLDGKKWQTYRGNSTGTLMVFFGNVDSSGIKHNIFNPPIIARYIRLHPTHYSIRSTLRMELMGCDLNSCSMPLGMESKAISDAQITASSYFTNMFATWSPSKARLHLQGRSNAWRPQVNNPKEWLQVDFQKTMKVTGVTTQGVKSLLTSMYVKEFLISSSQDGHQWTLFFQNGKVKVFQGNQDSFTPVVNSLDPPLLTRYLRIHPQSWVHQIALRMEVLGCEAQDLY
CD16 (Homo sapiens), sequence (P08637 17-254): as the sequence (P08637 17-254) above

In the case of “recombinant Factor VIII Fc-fusion protein (rFVIIIFc) (Fc fusion)”, in experiment [1], the EC50 of IFNγ secretion (ELISA) by CD16^+ NK cells (PTA-6967), overnight, rFVIIIFc 250 nM to 7.6 pM (Figure 2B) is 6.4 nM. The substance further registered a surface CD107a (LAMP1), % LAMP1^+ PTA-6967 NK cells by flow cytometry after 6 hours with 250 nM rFVIIIFc, against untreated cells (Figure 2E) in experiment [2] of 8 fold.

FVIII (from UniProt P00451): in the experiment with VWF (Homo sapiens), the Kd is 0.2 nM.

For IgG1 Fc Fc (from UniProt P01857), the equilibrium dissociation constant (Kd) in the experiment with CD16 (Homo sapiens) was 1000 nM.
